Laboratory results taken from patent US20260167712A1, “INHIBITORY ANTIBODIES AGAINST GLUT1” (ICOSAGEN CELL FACTORY OÜ, priority 2022, published 2026).
“Also recorded” adds a separate entry of the source.

T1: SLC2A1 pseudotyped VLPs (Homo sapiens, UniProt P11166)
T1 sequence (P11166 1-492): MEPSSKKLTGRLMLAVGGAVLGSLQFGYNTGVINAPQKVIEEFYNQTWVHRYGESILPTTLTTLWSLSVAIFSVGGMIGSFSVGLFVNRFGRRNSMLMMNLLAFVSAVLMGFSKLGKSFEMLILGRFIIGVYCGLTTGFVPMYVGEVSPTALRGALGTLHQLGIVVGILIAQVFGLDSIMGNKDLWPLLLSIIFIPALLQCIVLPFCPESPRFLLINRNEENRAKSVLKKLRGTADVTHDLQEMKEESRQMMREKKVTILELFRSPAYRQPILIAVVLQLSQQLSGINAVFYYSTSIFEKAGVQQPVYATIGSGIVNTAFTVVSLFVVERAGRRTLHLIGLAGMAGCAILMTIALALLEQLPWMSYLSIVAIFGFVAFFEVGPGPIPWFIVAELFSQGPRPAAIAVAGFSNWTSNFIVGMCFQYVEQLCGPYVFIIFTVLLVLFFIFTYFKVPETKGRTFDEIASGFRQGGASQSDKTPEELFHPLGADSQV

T2: SLC2A2 pseudotyped VLPs (Homo sapiens, UniProt P11168)
T2 sequence (P11168 1-524): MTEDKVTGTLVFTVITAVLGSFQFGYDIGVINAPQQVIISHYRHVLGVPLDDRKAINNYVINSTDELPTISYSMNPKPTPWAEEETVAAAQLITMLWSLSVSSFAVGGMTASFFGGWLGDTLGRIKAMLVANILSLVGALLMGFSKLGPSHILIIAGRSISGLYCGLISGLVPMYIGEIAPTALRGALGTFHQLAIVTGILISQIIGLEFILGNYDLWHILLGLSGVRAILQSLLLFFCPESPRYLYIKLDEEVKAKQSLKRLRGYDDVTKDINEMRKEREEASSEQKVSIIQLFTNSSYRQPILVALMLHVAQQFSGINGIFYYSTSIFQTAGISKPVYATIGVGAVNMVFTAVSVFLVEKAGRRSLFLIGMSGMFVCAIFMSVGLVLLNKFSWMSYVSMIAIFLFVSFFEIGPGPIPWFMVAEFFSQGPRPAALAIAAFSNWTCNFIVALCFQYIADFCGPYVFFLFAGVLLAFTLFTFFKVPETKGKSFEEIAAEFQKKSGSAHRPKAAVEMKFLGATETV

T3: SLC2A2 pseudotyped VLPs (UniProt P11168 1-524)
T3 construct: also called SLC2A2 VLPs; GLUT2
T3 sequence: T2 sequence (P11168 1-524)

T4: SLC2A3 pseudotyped VLPs (UniProt P11169 1-496)
T4 construct: also called SLC2A3 VLPs; GLUT3
T4 sequence: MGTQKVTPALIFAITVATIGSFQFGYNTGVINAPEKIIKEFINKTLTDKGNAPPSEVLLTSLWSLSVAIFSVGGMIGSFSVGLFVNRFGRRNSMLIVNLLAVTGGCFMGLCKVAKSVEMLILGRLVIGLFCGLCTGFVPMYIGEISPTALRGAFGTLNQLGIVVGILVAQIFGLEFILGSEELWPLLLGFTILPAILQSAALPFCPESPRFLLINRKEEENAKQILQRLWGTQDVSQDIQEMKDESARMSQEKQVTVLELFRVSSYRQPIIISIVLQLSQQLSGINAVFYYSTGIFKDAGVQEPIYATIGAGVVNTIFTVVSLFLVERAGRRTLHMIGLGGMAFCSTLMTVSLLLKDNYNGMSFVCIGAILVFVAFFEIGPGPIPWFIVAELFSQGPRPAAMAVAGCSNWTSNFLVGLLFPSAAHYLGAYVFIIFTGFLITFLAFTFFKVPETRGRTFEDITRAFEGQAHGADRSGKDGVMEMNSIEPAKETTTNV

B1: 6F12 #33 (antibody, V domains shown)
VH: AVTLDESGGGLQTPGGALSLVCKASGFTFSDHAIFWVRQAPDKGLEFVAAISSGTGSWTAYATVVKGRATISRDNGQSTVRLQLNNLRAADTATYYCAKGAGSACCYAGSIDAWGHGTEVIVSS
VL: ALTQPSSVSANPGETVKITCSGGSSSSYYGWYQQKSPGSAPVTLIYYNDKRPSDIPSRFSGSKSGSTATLTITGVQVEDEAVYYCGTGDGSFAIFGAGTTLTVL
B2: 2E5 #22 (antibody, V domains shown)
VH: AVTLDESGGGLQTPGGALSLVCKASGFTFSTKGMGWVRQTPGKGLEWVAGISSMRRYTYYAPAVKGRATISRDNGQSTVRLQLSSLRAEDSGTYYCARDATYCSWTTSTCGWSGGTIDAWGHGTEVIVSS
VL: ALTQPSSVSANLGGTVKITCSGGSGNYGWYQQKSPGSVPVTVIYSNDKRPSDIPSRFSGSGSGSTATLTITGVQVEDEAVYFCGSRDSSYVGLFGAGTTLTVL

Tests used:
SLC2A1 pseudotyped VLPs = molecular target: T1, SLC2A1 pseudotyped VLPs; assay: ELISA-based SLC2A1 VLP binding assay; conditions: 5 μg/mL VLP coating, FIG. 1
Method: (§1) An ELISA-based VLP binding assay was carried out to compare the EC50 values of antibody clones (FIG. 1). Similarly, ELISA based VLP binding assay was performed to compare the binding of the antibodies to different glucose transporters (FIG. 3). MaxiSorp™ high-capacity binding ELISA plate (Thermo Fisher Scientific, US) were coated with 5 μg/mL SLC2A1, SLC2A2, SLC2A3, SLC2A4 pseudotyped VLPs or MOCK VLPs in PBS overnight. The plate was washed and blocked for 1 h with 0.05% Tween 20, 2% BSA in PBS. Serial dilutions of antibodies were incubated on a washed plate for 1 hour, followed by a 1-hour incubation with goat anti-human IgG horse radish peroxidase (HRP) conjugated (Invitrogen) antibody. TMB (3,3′,5,5′-Tetramethylbenzidine) Solution VII (Biopanda Diagnostics) was used as a substrate for HRP and 0.5 M H2SO4 was used as stop solution. After every step, the wells were washed with 0.05% Tween 20, 0.1% Proclin 300 PBS solution. Absorption at 450 nm was measured with Thermo Scientific™ Multiskan™ FC Microplate Photometer. Exemplary wise used antibodies 1G2 #9, 2A2 #12, 2E5 #22, 5G5 #30, 6F12 #33, 7C3 #39 all bound SLC2A1 VLPs with low nanomolar EC50 values (FIG. 1).

SLC2A2 pseudotyped VLPs [1] = molecular target: T2, SLC2A2 pseudotyped VLPs; assay: ELISA-based VLP binding assay, SLC2A2; conditions: compared to MOCK VLPs, FIG. 3
Method: as §1

MCF7 breast cancer cells = assay: Cell proliferation inhibition assay (Incucyte), MCF7; format: cell-based; conditions: for MCF7 cell growth in combination with phenformin: co-treatment with phenformin, FIGS. 7 and 9
Method: (§2) Incucyte S3 Live cell analysis instrument and Cell-by-Cell analysis software module (Sartorius) were used to evaluate the effect of anti-SLC2A1 antibodies on cancer cell proliferation label-free (FIGS. 5-11). MCF7, PC3 or PANC1 or MIAPACA2 cells were plated on flat bottom tissue culture 96-well plate in […] medium (Ximbio) supplemented with 2.5% FBS. Cells were incubated overnight and 0.02 nM to 13 μM anti-SLC2A1 antibodies, anti-HEL isotype control, PBS or BAY-876 were added to the cells alone or in combination with metformin (CaymanChem), phenformin (Sigma Aldrich) or IACS-010759 (CaymanChem). Cell confluence or object count was measured for 24 to 96 hours with Incucyte S3 and normalized to timepoint 0 h or 4h. anti-SLC2A1 antibodies inhibit cancer cell proliferation alone and especially in combination with complex-I inhibitors metformin, phenformin and IACS-010759. Exemplary antibodies 1G2 #9, 2A2 #12, 2E5 #22, 5G5 #30, 6F12 #33, 7C3 #39 and R14 #54 were used in proliferation assays.

[2] = tested on: MIAPACA2 pancreatic cancer cell line; assay: Cell proliferation inhibition assay (Incucyte), MIAPACA2; format: cell-based; conditions: co-treatment with IACS-010759, compared to single agents, FIG. 11C
Method: as §2

[3] = Body weight in MiaPaca2 xenograft study; format: in vivo, mice; conditions: during treatments, FIG. 12B
Description: Hsd:Athymic Nude-Foxn1^nu mice (10 per group) were inoculated with 5e6 MiaPaca2 cells/mouse subcutaneously.

SLC2A2 pseudotyped VLPs [4] = molecular target: T3, SLC2A2 pseudotyped VLPs; assay: ELISA on VLPs coated at 5 ug/mL, compared with MOCK VLPs
SLC2A3 pseudotyped VLPs = molecular target: T4, SLC2A3 pseudotyped VLPs; assay: as above

Molecule | EC50 of binding to SLC2A1 VLPs (SLC2A1 pseudotyped VLPs) | binding to SLC2A2 VLPs (SLC2A2 pseudotyped VLPs [1]) | MCF7 cell growth in combination with IACS-010759 (MCF7 breast cancer cells; co-treatment with IACS-010759, FIG. 8) | MCF7 cell growth in combination with metformin (MCF7 breast cancer cells; co-treatment with metformin, FIG. 6) | MCF7 cell growth in combination with phenformin (MCF7 breast cancer cells) | MIAPACA2 cell growth in combination with IACS-010759 [2] | body weight [3] | binding result (SLC2A2 pseudotyped VLPs [4]) | binding result (SLC2A3 pseudotyped VLPs) | MCF7 cell growth (confluence), single agent (MCF7 breast cancer cells; alone, Incucyte)
B1 | low nanomolar | did not bind | drastically inhibited | drastically inhibited | completely inhibit; also recorded: drastically inhibited; also recorded: most potent growth inhibitors | dramatic growth reduction | No changes; also recorded: remained unchanged | no binding | no binding | 
B2 | low nanomolar | did not bind; also recorded: Some binding |  |  | completely inhibit; also recorded: most potent growth inhibitors |  |  | no binding | no binding | only a modest inhibition
